Data published in article doi:10.1101/2021.07.22.453419.
Like-named read-outs stand apart in the source and are kept apart here.

Columns and labels:
[1] = molecular target: Papain (E.C.3.4.22.2, from papaya latex) (papaya) (UniProt P00784)
[2] = molecular target: Papain (E.C.3.4.22.2, from papaya latex) (papaya) (UniProt P00784); conditions: natural protein
[3] = molecular target: Papain (E.C.3.4.22.2, from papaya latex) (papaya) (UniProt P00784); remark: listed apart in the source
[4] = molecular target: Papain (E.C.3.4.22.2, from papaya latex) (papaya) (UniProt P00784); remark: listed apart in the source
[5] = molecular target: Papain (E.C.3.4.22.2, from papaya latex) (papaya) (UniProt P00784); remark: listed apart in the source
[6] = molecular target: Papain (E.C.3.4.22.2, from papaya latex) (papaya) (UniProt P00784); remark: listed apart in the source
[7] = molecular target: Papain (E.C.3.4.22.2, from papaya latex) (papaya) (UniProt P00784); experiment: enzyme inhibition kinetics
[8] = molecular target: Papain (E.C.3.4.22.2, from papaya latex) (papaya) (UniProt P00784); remark: listed apart in the source
[9] = molecular target: Papain (E.C.3.4.22.2, from papaya latex) (papaya) (UniProt P00784); remark: listed apart in the source
[10] = molecular target: Papain (E.C.3.4.22.2, from papaya latex) (papaya) (UniProt P00784); remark: listed apart in the source
[11] = molecular target: Papain (E.C.3.4.22.2, from papaya latex) (papaya) (UniProt P00784); remark: listed apart in the source
[12] = molecular target: Papain (E.C.3.4.22.2, from papaya latex) (papaya) (UniProt P00784); remark: listed apart in the source
[13] = molecular target: Papain (E.C.3.4.22.2, from papaya latex) (papaya) (UniProt P00784); remark: listed apart in the source
[14] = molecular target: Papain (E.C.3.4.22.2, from papaya latex) (papaya) (UniProt P00784); conditions: natural protein; remark: listed apart in the source
[15] = molecular target: Papain (E.C.3.4.22.2, from papaya latex) (papaya) (UniProt P00784); conditions: natural protein; remark: listed apart in the source

Papain (E.C.3.4.22.2, from papaya latex) (papaya), sequence (P00784 134-345): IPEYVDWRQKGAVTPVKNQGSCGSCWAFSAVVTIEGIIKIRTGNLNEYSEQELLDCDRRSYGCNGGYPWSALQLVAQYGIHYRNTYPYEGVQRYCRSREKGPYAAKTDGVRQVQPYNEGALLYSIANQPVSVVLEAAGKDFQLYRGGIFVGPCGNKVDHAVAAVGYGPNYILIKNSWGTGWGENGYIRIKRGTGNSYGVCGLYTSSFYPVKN

Substance: EgCYS
- Ki [1]: 6.4 nM

Substance: Glycine soja GsCYS
- Ki [2]: 4.3 nM

Substance: JcCYS
- Ki [3]: 7 nM

Substance: KsCYS
- Ki [4]: 7.5 nM

Substance: LjCYS
- Ki [5]: 13.5 nM

Substance: MsCYS
- Ki [6]: 7.1 nM

Substance: Physcomitrella patens C-tailed cystatin domain PpCYS (domain or fragment)
- Ki [7]: 1.2 nM

Substance: PsCYS
- Ki [8]: 4.8 nM

Substance: SiCYS
- Ki [9]: 5.5 nM

Substance: SlCYS8 SE hybrid P-1 (first inhibitory loop of PpCYS)
- Ki (papain), fold smaller than that of SlCYS8 [7]: 7 fold

Substance: SlCYS8 SE hybrid P-N1 (N-terminal trunk and first inhibitory loop of PpCYS)
- Ki (papain), fold smaller than that of SlCYS8 [7]: 7 fold

Substance: SlCYS9
- Ki [10]: 13.3 nM

Substance: TcCYSB
- Ki [11]: 5.6 nM

Substance: ThCYS
- Ki [12]: 14 nM

Substance: ZmCYSB
- Ki [13]: 4.8 nM

Substance: barley cystatin HaCYS3
- Ki [14]: 15.4 nM

Substance: cucumber cystatin CsCYS
- Ki [15]: 14.4 nM

Substance: soybean GmCYSB (natural protein)
- Ki [7]: 38.2 nM

Substance: tomato multicystatin domain SlCYS7 (domain or fragment)
- Ki [7]: 2.7 nM
